Target: T1, Tfb2 (p52), subunit of TFIIH (S. cerevisiae, UniProt Q02939 1-513)
T1 construct: Tfb2 (p52 in human), subunit of S. cerevisiae TFIIH; Stood in the assay as a subunit of TFIIH
T1 sequence: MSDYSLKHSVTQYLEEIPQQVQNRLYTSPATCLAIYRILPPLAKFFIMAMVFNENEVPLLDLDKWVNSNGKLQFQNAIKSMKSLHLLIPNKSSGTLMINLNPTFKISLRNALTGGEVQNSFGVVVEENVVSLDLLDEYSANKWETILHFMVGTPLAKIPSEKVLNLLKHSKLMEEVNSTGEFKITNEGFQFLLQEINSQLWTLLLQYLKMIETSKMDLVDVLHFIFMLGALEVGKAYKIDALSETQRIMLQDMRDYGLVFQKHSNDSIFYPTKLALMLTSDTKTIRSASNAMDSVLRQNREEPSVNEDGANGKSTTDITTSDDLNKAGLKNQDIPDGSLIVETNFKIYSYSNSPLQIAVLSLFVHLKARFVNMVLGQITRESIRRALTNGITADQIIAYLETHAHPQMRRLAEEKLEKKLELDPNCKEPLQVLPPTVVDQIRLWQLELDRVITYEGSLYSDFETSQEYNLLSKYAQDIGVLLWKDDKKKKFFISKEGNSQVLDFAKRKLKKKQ
Test: cryo-EM structure; PIC-nucleosome complex A, without NTPs; PIC assembled in vitro on nucleosomal 209 bp His4 promoter/Widom-601 scaffold, GraFix (15-40% sucrose, 0-0.1% glutaraldehyde); overall 3.3 Å
Settings: both partners purified

B1: Tfb5, subunit of TFIIH (natural protein, S. cerevisiae)
chain: MARARKGALVQCDPSIKALILQIDAKMSDIVLEELDDTHLLVNPSKVEFVKHELNRLLSKNIYNPMDEEENQ
notes: Tfb5, subunit of S. cerevisiae TFIIH; Stood in the assay as a subunit of TFIIH
B1: binds.

Source: article PMC9935396, “Structures of transcription preinitiation complex engaged with the +1 nucleosome” (Nature Structural & Molecular Biology, 2022)
